17 molecules from patent US10487348B2, “3-alpha-hydroxysteroid dehydrogenase mutants and process for the preparation of ursodeoxycholic acid” (Pharmazell GmbH, priority 2014, dated 2019) can be followed below.

Substrate in data set [1]: C[C@H](CCC(=O)O)[C@H]1CC[C@H]2[C@@H]3C(=O)C[C@@H]4CC(=O)CC[C@]4(C)[C@H]3CC(=O)[C@]12C
The experiment in a line: cells, lysate or membranes named. The settings on record: pH 8.0, 25.0 °C.

A further data set relates to 3α-HSDH; substrate DHCA. Type of data set: biochemical, Comamonas testosteroni. The settings on record: for DHCA substrate concentration at maximum specific activity / substrate excess inhibition: purified enzyme variant.
Substrate in data set [2]: NC(=O)C1=CN([C@@H]2O[C@H](COP(=O)(O)OP(=O)(O)OC[C@H]3O[C@@H](n4cnc5c(N)ncnc54)[C@H](O)[C@@H]3O)[C@@H](O)[C@H]2O)C=CC1
The experiment in a line: purified protein, by the assay type. The settings on record: other: Table 15, substrate NADH, apparent values, pH 8.0.

Substrate in data set [3]: C[C@H](CCC(=O)O)[C@H]1CC[C@H]2[C@@H]3C(=O)C[C@@H]4CC(=O)CC[C@]4(C)[C@H]3CC(=O)[C@]12C
As to the kind of experiment: purified protein, by the assay type. The settings on record: other: Table 14, substrate DHCA, tag N, apparent values, pH 8.0.

Substrate in data set [4]: NC(=O)C1=CN([C@@H]2O[C@H](COP(=O)(O)OP(=O)(O)OC[C@H]3O[C@@H](n4cnc5c(N)ncnc54)[C@H](O)[C@@H]3O)[C@@H](O)[C@H]2O)C=CC1
As to the kind of experiment: Michaelis-Menten kinetics of wild-type 3α-HSDH with N-terminal His tag. Type of data set: biochemical, Comamonas testosteroni. The settings on record: other: Table 15, substrate NADH, apparent values, pH 8.0. An excerpt:
The His-tag allows for very simple purification of the HSDH protein since this sequence is bound with high specificity by specific chromatographic material (NTA (Ni-nitrilotriacetate)-modified support material, loaded with divalent nickel ions, for example “His Pur Ni-NTA” (Nimagen B. V., Nijmegen, The Netherlands)). To this end, the cell-free crude extract is applied to a dropping column comprising this material, which dropping column has previously been equilibrated with the disruption buffer (3 to 5 column volumes). Weakly binding protein was removed by washing with 3 to 5 column volumes of wash buffer (20 mM imidazole, 50 mM sodium phosphate, 300 mM NaCl, pH 8). The His-tag-3α-HSDH protein was eluted with imidazole-comprising elution buffer (250 mM imidazole, 50 mM sodium phosphate, 300 mM NaCl, pH 8). The process was carried out at room temperature. The imidazole which was present was to be removed by buffer exchange.
The activity of the 3α-HSDH and of the mutants was determined using a photometric assay, where the decrease in absorbance was measured at 340 nm over a period of 30 seconds.
The targeted exchange of amino acid radicals was performed analogously to Example 2B.
Following cultivation and expression, the cells were harvested, and the specific activities of the cell-free crude extracts were determined at substrate concentrations of 10 mM DHCA. The enzyme variants where the activity measurements with crude extract enzyme were most promising were purified by means of Ni-NTA chromatography, […] In addition, an expression check by means of SDS PAGE was carried out for all mutants.

The mark [5] stands for this setting: other: crude extract (without His tag), DHCA, read from the diagram.

Numbering of substitutions follows the chain as printed. Names may count otherwise. Marks after values point to notes of the source that are not given here.

B1: Comamonas testosteroni 3α-HSDH, wild type, C-terminal 9×His tag (SEQ ID NO: 51) (Comamonas testosteroni) (protein)
chain: MSIIVISGCATGIGAATRKVLEAAGHQIVGIDIRDAEVIADLSTAEGRKQAIADVLAKCSKGMDGLVLCAGLGPQTKVLGNVVSVNYFGATELMDAFLPALKKGHQPAAVVISSVASAHLAFDKNPLALALEAGEEAKARAIVEHAGEQGGNLAYAGSKNALTVAVRKRAAAWGEAGVRLNTIAPGATETPLLQAGLQDPRYGESIAKFVPPMGRRAEPSEMASVIAFLMSPAASYVHGAQIVIDGGIDAVMRPTQFLEHHHHHHHHH
As a reminder, the Km is the substrate concentration at which the rate is half of its maximum. Take B1: the Km in data set [1] (other: His tag length 9, DHCA 10 μM-10 mM, NADH 0.2 mM, purified) is 70.5 ± 14.2 µM.

B2: T188A N: 3α-HSDH mutant T188A with N-terminal hexahistidine tag (protein, UniProt P80702 2-257, looked up, variant T188A)
3-alpha-hydroxysteroid …: SIIVISGCATGIGAATRKVLEAAGHQIVGIDIRDAEVIADLSTAEGRKQAIADVLAKCSKGMDGLVLCAGLGPQTKVLGNVVSVNYFGATELMDAFLPALKKGHQPAAVVISSVASAHLAFDKNPLALALEAGEEAKARAIVEHAGEQGGNLAYAGSKNALTVAVRKRAAAWGEAGVRLNTIAPGAAETPLLQAGLQDPRYGESIAKFVPPMGRRAEPSEMASVIAFLMSPAASYVHGAQIVIDGGIDAVMRPTQF
modifications: N-terminal His6 tag
notes: 3α-HSDH mutant T188A with N-terminal hexahistidine tag
Consider B2, for which the “DHCA substrate concentration at maximum specific activity” value (“DHCA substrate concentration” for short) with 3α-HSDH; substrate DHCA turned out to be 0.5 mM. The substrate excess inhibition entry in the data set on 3α-HSDH; substrate DHCA (substrate DHCA) is on record as “pronounced substrate excess inhibition”.

B3: L68A N: 3α-HSDH mutant L68A with N-terminal hexahistidine tag (protein, UniProt P80702 2-257, looked up, variant L68A)
3-alpha-hydroxysteroid …: B2 3-alpha-hydroxysteroid … with L67A, A187T
modifications: N-terminal His6 tag
notes: 3α-HSDH mutant L68A with N-terminal hexahistidine tag
B3: in the data set with 3α-HSDH; substrate DHCA, the “DHCA substrate concentration” value is recorded as 0.1 mM. Also, in the data set with 3α-HSDH; substrate DHCA (substrate DHCA), the substrate excess inhibition entry is reported as “pronounced substrate excess inhibition”.

B4: L68A/T188A N: 3α-HSDH dual mutant L68A/T188A with N-terminal hexahistidine tag (protein, UniProt P80702 2-257, looked up, variant L68A T188A)
3-alpha-hydroxysteroid …: B2 3-alpha-hydroxysteroid … with L67A
modifications: N-terminal His6 tag
notes: 3α-HSDH dual mutant L68A/T188A with N-terminal hexahistidine tag
Take B4: the “DHCA substrate concentration” value in the data set with 3α-HSDH; substrate DHCA was 0.5 mM. Besides, the substrate excess inhibition entry with 3α-HSDH; substrate DHCA (substrate DHCA) is “less pronounced substrate excess inhibition”.

B5: P185A/T188A N: 3α-HSDH dual mutant P185A/T188A with N-terminal hexahistidine tag (protein, UniProt P80702 2-257, looked up, variant P185A T188A)
3-alpha-hydroxysteroid …: B2 3-alpha-hydroxysteroid … with P184A
modifications: N-terminal His6 tag
notes: 3α-HSDH dual mutant P185A/T188A with N-terminal hexahistidine tag
Turning to B5, the “DHCA substrate concentration” value in the data set with 3α-HSDH; substrate DHCA is given as 0.5 mM. In the data set with 3α-HSDH; substrate DHCA (substrate DHCA), the substrate excess inhibition entry is “substrate excess inhibition was observed” and the “activities compared with the corresponding single mutants” value is “markedly lower”.

B6: L68A/T188S N: 3α-HSDH dual mutant L68A/T188S with N-terminal hexahistidine tag (protein, UniProt P80702 2-257, looked up, variant L68A T188S)
3-alpha-hydroxysteroid …: B2 3-alpha-hydroxysteroid … with L67A, A187S
modifications: N-terminal His6 tag
notes: 3α-HSDH dual mutant L68A/T188S with N-terminal hexahistidine tag
Take B6: the “DHCA substrate concentration” value in the data set on 3α-HSDH; substrate DHCA came to 0.5 mM. Moreover, the substrate excess inhibition entry with 3α-HSDH; substrate DHCA (substrate DHCA) is “pronounced substrate excess inhibition”.

B7: T188S N: 3α-HSDH mutant T188S with N-terminal hexahistidine tag (protein, UniProt P80702 2-257, looked up, variant T188S)
3-alpha-hydroxysteroid …: B2 3-alpha-hydroxysteroid … with A187S
modifications: N-terminal His6 tag
notes: 3α-HSDH mutant T188S with N-terminal hexahistidine tag
B7: in the data set on 3α-HSDH; substrate DHCA, the “DHCA substrate concentration” value is listed as 0.5 mM. Further, the substrate excess inhibition entry with 3α-HSDH; substrate DHCA (substrate DHCA) is on record as “substrate excess inhibition is observed”.

B8: Comamonas testosteroni 3α-HSDH, wild type, C-terminal 3×His tag (Comamonas testosteroni) (protein)
chain: MSIIVISGCATGIGAATRKVLEAAGHQIVGIDIRDAEVIADLSTAEGRKQAIADVLAKCSKGMDGLVLCAGLGPQTKVLGNVVSVNYFGATELMDAFLPALKKGHQPAAVVISSVASAHLAFDKNPLALALEAGEEAKARAIVEHAGEQGGNLAYAGSKNALTVAVRKRAAAWGEAGVRLNTIAPGATETPLLQAGLQDPRYGESIAKFVPPMGRRAEPSEMASVIAFLMSPAASYVHGAQIVIDGGIDAVMRPTQFLEHHH
Consider B8, for which the Km in data set [1] (other: His tag length 3, DHCA 10 μM-10 mM, NADH 0.2 mM, purified) worked out at 997.9 ± 483 µM.

B9: Comamonas testosteroni 3α-HSDH, wild type, without His tag, SEQ ID NO:4 (Comamonas testosteroni) (protein)
chain: MSIIVISGCATGIGAATRKVLEAAGHQIVGIDIRDAEVIADLSTAEGRKQAIADVLAKCSKGMDGLVLCAGLGPQTKVLGNVVSVNYFGATELMDAFLPALKKGHQPAAVVISSVASAHLAFDKNPLALALEAGEEAKARAIVEHAGEQGGNLAYAGSKNALTVAVRKRAAAWGEAGVRLNTIAPGATETPLLQAGLQDPRYGESIAKFVPPMGRRAEPSEMASVIAFLMSPAASYVHGAQIVIDGGIDAVMRPTQF
By Vmax is commonly meant the rate approached at saturating substrate. Usually kcat stands for the maximal rate divided by the concentration of active sites. What is called kcat/Km is the turnover number divided by the Michaelis constant. B9: in data set [1] (setting [5]), the Km is listed as 200* μM and the Vmax amounted to 25 µmol/min/mg. In addition, in data set [2] (without tag, 25.0 °C), the Km came out at 46.9 ± 5.9 µM, the Vmax was determined as 186 µmol/min/mg, the kcat was found to be 88.5 s⁻¹ and the kcat/Km was found to be 1.88e+06 M⁻¹ s⁻¹.

B10: Comamonas testosteroni 3α-HSDH dual mutant [L68A/T188S], N-terminal hexahistidine tag (Comamonas testosteroni; L68A/T188S) (protein)
chain: B9 chain with L68A, T188S
For the molecule B10, in data set [2] (tag N), the Km was determined as 47.4 ± 2.6 µM, the Vmax was determined as 188 µmol/min/mg, the kcat was determined as 91.8 s⁻¹ and the kcat/Km was 1.94e+06 M⁻¹ s⁻¹. In addition, the Km in data set [3] amounted to 169.6 ± 22.6 µM.

B11: Comamonas testosteroni 3α-HSDH mutant [T188S], N-terminal hexahistidine tag (Comamonas testosteroni; T188S) (protein)
chain: B9 chain with T188S
On to B11, for which, in data set [2] (tag N), the Km was 87.6 ± 29.7 µM, the Vmax is 147 µmol/min/mg, the kcat came to 96.1 s⁻¹ and the kcat/Km worked out at 1.1e+06 M⁻¹ s⁻¹. Moreover, the Km in data set [3] was 312.6 ± 112 µM.

B12: Comamonas testosteroni 3α-HSDH mutant [T188A], N-terminal hexahistidine tag (Comamonas testosteroni; T188A) (protein)
chain: B9 chain with T188A
Regarding B12, in data set [2] (tag N), the Km stood at 111.5 ± 18.2 µM, the Vmax is 237 µmol/min/mg, the catalytic constant (kcat) was found to be 130 s⁻¹ and the kcat/Km is 1.17e+06 M⁻¹ s⁻¹. Besides, in data set [3], the Km came out at 94.5 ± 11 µM.

B13: Comamonas testosteroni 3α-HSDH dual mutant [P185A/T188A], N-terminal hexahistidine tag (Comamonas testosteroni; P185A/T188A) (protein)
chain: B9 chain with P185A, T188A
In the case of B13, in data set [2] (tag N), the Km amounted to 333.9 ± 137.5 µM, the Vmax is 85.9 µmol/min/mg, the kcat turned out to be 17.6 s⁻¹ and the kcat/Km came to 52600 M⁻¹ s⁻¹. For the same molecule, the Km in data set [3] is 66.9 ± 15 µM.

B14: Comamonas testosteroni 3α-HSDH mutant [L68A], N-terminal hexahistidine tag (Comamonas testosteroni; L68A) (protein)
chain: B9 chain with L68A
B14: in data set [2] (tag N), the Km is 17.1 ± 3.7 µM, the Vmax was found to be 138 µmol/min/mg, the kcat was 110 s⁻¹ and the kcat/Km was determined as 6.46e+06 M⁻¹ s⁻¹. Moreover, the Km in data set [3] (NADH 0.2 mM) came to 75.4 ± 22.6 µM.

B15: Comamonas testosteroni 3α-HSDH dual mutant [L68A/T188A], N-terminal hexahistidine tag (Comamonas testosteroni; L68A/T188A) (protein)
chain: B9 chain with L68A, T188A
With B15, in data set [2] (tag N), the Km amounted to 67.5 ± 4.7 µM, the Vmax came out at 229 µmol/min/mg, the kcat is 111 s⁻¹ and the specificity constant (kcat/Km) is 1.65e+06 M⁻¹ s⁻¹. The Km in data set [3] was determined as 164.4 ± 20.4 µM.

B16: Comamonas testosteroni 3α-HSDH, wild type, N-terminal hexahistidine tag (Comamonas testosteroni) (protein)
chain: B9 chain
For the molecule B16, in data set [4], the Km was found to be 59.2 ± 6.9 µM, the Vmax came to 109 µmol/min/mg, the kcat came out at 47.1 s⁻¹ and the kcat/Km is 796000 M⁻¹ s⁻¹.

B17: Comamonas testosteroni 3α-HSDH mutant [P185A], N-terminal hexahistidine tag (Comamonas testosteroni; P185A) (protein)
chain: B9 chain with P185A
Take B17: the Km in data set [3] worked out at 71.0 ± 11 µM.
